{"source": "patent US20080050776A1", "key": {"[1]": {"molecular_target": "p75 neurotrophin receptor (p75NTR) (UniProt P07174)", "sequence (P07174 30-425)": "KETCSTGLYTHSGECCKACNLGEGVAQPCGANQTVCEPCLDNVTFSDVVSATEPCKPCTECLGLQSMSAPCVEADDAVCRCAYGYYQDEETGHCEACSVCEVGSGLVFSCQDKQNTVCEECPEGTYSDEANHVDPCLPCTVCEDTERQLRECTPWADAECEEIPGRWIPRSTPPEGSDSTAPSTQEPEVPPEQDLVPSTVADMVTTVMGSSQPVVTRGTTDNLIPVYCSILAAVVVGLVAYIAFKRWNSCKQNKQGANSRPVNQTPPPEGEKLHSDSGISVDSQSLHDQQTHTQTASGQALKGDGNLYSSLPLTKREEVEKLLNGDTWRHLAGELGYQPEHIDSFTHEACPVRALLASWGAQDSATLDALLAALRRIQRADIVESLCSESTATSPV", "assay": "cell-based or functional assay"}, "Sortilin co-receptor": {"molecular_target": "Sortilin co-receptor (UniProt O54861)", "sequence (O54861 74-825 limits assumed)": "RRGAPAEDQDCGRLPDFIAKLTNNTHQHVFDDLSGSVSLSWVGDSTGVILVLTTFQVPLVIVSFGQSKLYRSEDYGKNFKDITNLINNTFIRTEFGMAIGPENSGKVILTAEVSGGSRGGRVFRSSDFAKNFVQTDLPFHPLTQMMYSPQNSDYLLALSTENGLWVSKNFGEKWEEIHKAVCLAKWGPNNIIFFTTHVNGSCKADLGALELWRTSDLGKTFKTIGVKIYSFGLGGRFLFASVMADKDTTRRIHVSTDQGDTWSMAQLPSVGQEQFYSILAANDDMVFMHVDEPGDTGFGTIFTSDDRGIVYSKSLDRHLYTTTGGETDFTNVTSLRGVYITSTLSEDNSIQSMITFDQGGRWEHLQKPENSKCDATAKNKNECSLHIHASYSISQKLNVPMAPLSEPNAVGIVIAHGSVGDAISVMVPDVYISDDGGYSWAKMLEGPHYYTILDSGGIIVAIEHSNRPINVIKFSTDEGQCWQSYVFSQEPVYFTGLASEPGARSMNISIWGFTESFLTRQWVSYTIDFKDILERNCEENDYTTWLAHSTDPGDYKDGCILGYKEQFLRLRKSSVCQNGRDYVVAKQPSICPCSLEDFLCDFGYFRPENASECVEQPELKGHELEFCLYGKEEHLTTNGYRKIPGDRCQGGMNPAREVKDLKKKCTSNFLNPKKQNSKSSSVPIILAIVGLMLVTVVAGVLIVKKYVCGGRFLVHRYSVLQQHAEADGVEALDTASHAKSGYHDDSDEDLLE", "assay": "cell-based or functional assay"}}}
{"substance": "proNGF123 (mutated mouse proNGF with mutations at all three processing sites) (ligand)", "values": [{"measurement": "cell death of PC-12 cells, trypan blue analysis 72 hours post treatment (2 nM)", "setting": "[1]", "result": "> 90", "unit": "%"}, {"measurement": "cell death of PC-12 cells, trypan blue analysis 72 hours post treatment (2 nM)", "setting": "Sortilin co-receptor", "result": "> 90", "unit": "%"}]}
